Laboratory results reported in the RNAGym collection of RNA variant scans (doi:10.1073/pnas.2313332121).
Variants at the floor of the assay were thinned out.

B1: TPR 5TU (parent)
chain: GGAUCUUCUCGAUCUAACAAAAAAGACAAAUCUGCCACAAAGCUUGAGAGCAUCUUCGGAUGCAGAGGCGGCAGCCUUCGGUGGCGCGAUAGCGCCAACGUUCUCAACUAUGACACGCAAAACGCGUGCUCCGUUGAAUGGAGUUUAUCAUG

Variants of: B1
Experiment: polymerase ribozyme fitness, log enrichment relative to wild type (log ratio); higher = more active; in vitro selection for triplet polymerase activity
How it was run: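 Mutant libraries were PCR-built and transcribed for each subunit of a heterodimeric triplet polymerase ribozyme and selected for one round in triplicate at −7 °C, frozen, before gel excision of extended constructs and streptavidin-bead capture. Input and output libraries were Illumina-sequenced, keeping genotypes with ≥10 input reads and ≥1 read per output. Fitness is a logarithmic ratio of genotype to wild-type enrichment, in base 2, using inverse-variance-weighted replicate averages.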

Variant	polymerase ribozyme fitness (log ratio)
U7A A26U C32G A49C G50A G83U	≤ -4.2
U7C G50U C87A U90A A106C	≤ -4.2
C8A A40U C57U U78A A119C	≤ -4.2
C8A G86A	-3.76
C8G A29U A41G U61A G68A U82C A89G C116U	≤ -4.2
C8A A40U G42A G68A C85U U144G	≤ -4.2
U7G A26C U44A G74C A115C	≤ -4.2
U7C G48U G84A G117C	≤ -4.2
C8G A16C G25U A37C G59C A64U C87A G92C	≤ -4.2
U7G A20C U56G U146G	-3.82
C8A A24G U61A C76G U78C G84U	≤ -4.2
C8A C114G A142C	≤ -4.2
U7G G48A G59A A60G A97G	-3.81
C8G C14U A26C U61A C69U G80A U145G	≤ -4.2
U7G G141C	-3.41
C8A C32A G62A U82G G143A	≤ -4.2
U7A C18A U33G A66U G84A G100A G124C	≤ -4.2
U7C U45G G83C G128U C132G A147C	≤ -4.2
C8G A28G U61A U104A A110U A120G A138C	≤ -4.2
C8A A30U G71A U82G C95A C103G U134A G141U	≤ -4.2
C8A U31G A37G G42A G83A	≤ -4.2

Variant	polymerase ribozyme fitness (log ratio)
C8G G59C G86C G117U	≤ -4.2
U7G A24C C43A A47G C75U C85A G86A C103G	≤ -4.2
C8A U44C C79G G86C G140U	≤ -4.2
C8A C32G A47U C54G G92U	≤ -4.2
U7A C27A U31G A66U U146G A150U	≤ -4.2
U7A C18U	-3.45
U7A U45G A49C G50C C87U C96A	≤ -4.2
U7A A24G C32A G88C C99G U104G G140C	-4.07
U7C U31A G46A G59C C85G C118U	≤ -4.2
C8G U13G A40C U77A G94A A97C C99U A113G G117U U139G U144G	≤ -4.2
C8A C14U A16U U33G A47U C57A C93A A142U	≤ -4.2
C8A C76A C85U G143C A150U	≤ -4.2
C8G A52G	-3.17
C8G C35U G46C C72U G74U C96U A107G	≤ -4.2
U7G A20C U56A C72G A73G C85U C93G A98G A115U	≤ -4.2
C8A C14G	-3.51
U7A C36U C95G	≤ -4.2
U7G A21U C54A A66C A91C G136A	≤ -4.2
U7G U44G U55G C99A	≤ -4.2
C8G A147C	≤ -4.2
C8G G50A A66C G84A	≤ -4.2

Variant	polymerase ribozyme fitness (log ratio)
U7A U45C G50U G83A A89U G94C A115U G141A	≤ -4.2
C8A U31G U33G A40U C51U U77C C93G C108G C116U A147G	≤ -4.2
C8A C27U G70A C96U	≤ -4.2
U7A A29G G67A C69U G80C C103G U104C C105U G136A G140U	≤ -4.2
U7G A37G C38U G59U A60U G94U C108U	≤ -4.2
C8G C63U G68A G92A A107U A142G	≤ -4.2
C8A U31A U56G C63A G68U C99A G128U	≤ -4.2
U7C A21C U33G C43U G62A C87U	≤ -4.2
U7G C10U C35U A64G C96A C129A	≤ -4.2
U7G C96U C129U A137G	≤ -4.2
U7C G25U U31C G62C C75U G117U A122G	≤ -4.2
C8A A30U C43G U144C	≤ -4.2
U7G U15G A21C A39G U45G G92U U127C	≤ -4.2
C8A G83U U90G C118A	≤ -4.2
U7C A41C C87U G126A	-3.82
C8G G62C G70U C96A C103U	≤ -4.2
U7A C27A G59U G83A G94A C103G	≤ -4.2
C8A C27U C76U	≤ -4.2
U7C A23U C87A A89G A115U U134A	≤ -4.2
C8A U53A	-3.45
C8A A22C C35U G48C A73U	≤ -4.2

Variant	polymerase ribozyme fitness (log ratio)
U7G A19C A40G U56A A120G A150C	≤ -4.2
U7G C35U U45A A52U G59A C93G G128A G141C	≤ -4.2
C8A A20G G68C C85A G126A	≤ -4.2
C8G U13A U33G G71A G74A C87G C96A C105A	≤ -4.2
U7G A60G	-2.7
U7G A16U A28C G62C G86U C95U A110U	≤ -4.2
U7C A39G C85G C105A A107U	≤ -4.2
C8G C36U C114U A115G U135G A150C	≤ -4.2
C8A A49G G71A C93U G152A	≤ -4.2
U7C A16C C35U C63U A121G G133C	≤ -4.2
C8A C10G G50U C51G U56G C57G G62A G86A	≤ -4.2
C8G G67C G92U C99U A107U U148A	≤ -4.2
C8A A26U	-3.66
C8G A52G C57U G80C U104G U148G	≤ -4.2
C8G G11C C14U G50C C95U C132A U135A A137C	≤ -4.2
U7C U53G G86C A106G A150C	≤ -4.2
C8A C14G U55A C85U G88U A138U	≤ -4.2
U7A C14G A29G C35G C36A G74A A91U C96A	≤ -4.2
C8G G25C U53G C63U C108A	≤ -4.2
C8A U55A C79U G84A C108G G124A	≤ -4.2
U7A G50A U78A C79G G86A C87A C99G A115U G141U	≤ -4.2
